Data on three substances can be found in patent publication US20210198647A1, “Enhancers of Neurolysin Activity” (Texas Tech University System, priority 2018, published 2021).

For one test, the target named is mouse plasma proteins. As to the kind of experiment: rapid equilibrium dialysis (RED), mouse plasma, 500 ng/mL.
The target of test [1] is N-terminal polyhistidine tagged recombinant rat neurolysin (rat) (UniProt P42676). The test is described as follows: cell-based or functional assay.

Turning to His-Trp (peptide), in the test with mouse plasma proteins, the fu in Plasma (fraction unbound) was 0.93.
For “NlnA#1, NSC 374121, L-histidyl-L-tyrosine (peptide)”, in test [1], the formation of angiotensin-(1-7) from angiotensin I (20 µM), mass spectrometry, 100 µM modulator stood at 6 fold; the formation of bradykinin-(1-5) from bradykinin (20 µM), mass spectrometry, 100 µM modulator was 2 fold; the formation of neurotensin-(1-10) from neurotensin (20 µM), mass spectrometry, 100 µM modulator is 3 fold. In the test with mouse plasma proteins, this substance returned a fu in Plasma (fraction unbound) of 0.66.
For “NlnA#2, NSC 523374, D,L-histidyl-D,L-histidine (peptide)”, in test [1], the formation of angiotensin-(1-7) from angiotensin I (20 µM), mass spectrometry, 100 µM modulator amounted to 6 fold; the formation of bradykinin-(1-5) from bradykinin (20 µM), mass spectrometry, 100 µM modulator is 2 fold; the formation of neurotensin-(1-10) from neurotensin (20 µM), mass spectrometry, 100 µM modulator was 3 fold.
